Data as given in article PMC10828586, “Unmasking crucial residues in adipose triglyceride lipase for coactivation with comparative gene identification-58” (Journal of Lipid Research, 2023).

Tests used:
Test in all cases: cell-based or functional assay
[1] = molecular target: T1, Xpress-mATGL, full-length, WT (Mus musculus, UniProt Q8BJ56 1-486)
T1 sequence (looked up): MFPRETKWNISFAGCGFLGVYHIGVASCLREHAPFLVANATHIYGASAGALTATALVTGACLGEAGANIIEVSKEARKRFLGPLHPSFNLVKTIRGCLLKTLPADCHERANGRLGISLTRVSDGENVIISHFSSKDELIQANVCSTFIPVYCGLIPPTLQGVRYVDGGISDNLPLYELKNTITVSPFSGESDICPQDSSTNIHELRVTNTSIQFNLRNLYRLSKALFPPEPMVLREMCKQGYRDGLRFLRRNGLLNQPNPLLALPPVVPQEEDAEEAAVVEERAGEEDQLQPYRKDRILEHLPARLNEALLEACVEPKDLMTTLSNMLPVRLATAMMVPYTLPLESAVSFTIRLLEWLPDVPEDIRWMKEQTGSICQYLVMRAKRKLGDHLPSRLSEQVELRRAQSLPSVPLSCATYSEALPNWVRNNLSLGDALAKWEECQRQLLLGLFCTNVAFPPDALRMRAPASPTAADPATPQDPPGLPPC

[2] = molecular target: T2, Xpress-mATGL288, WT (truncated after residue 288) (Mus musculus, UniProt Q8BJ56 1-288)
T2 sequence (looked up): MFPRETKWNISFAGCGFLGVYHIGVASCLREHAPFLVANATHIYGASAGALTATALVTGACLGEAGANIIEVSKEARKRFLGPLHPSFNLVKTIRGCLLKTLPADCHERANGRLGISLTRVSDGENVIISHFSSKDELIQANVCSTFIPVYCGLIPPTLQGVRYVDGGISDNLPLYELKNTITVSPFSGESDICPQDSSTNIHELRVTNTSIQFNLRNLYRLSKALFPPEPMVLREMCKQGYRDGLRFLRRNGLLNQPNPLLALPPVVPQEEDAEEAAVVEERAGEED

[3] = molecular target: T3, Xpress-mATGL288 N209A/I212A/N215A (Mus musculus, UniProt Q8BJ56 1-288, N209A | I212A | N215A)
T3 sequence (looked up): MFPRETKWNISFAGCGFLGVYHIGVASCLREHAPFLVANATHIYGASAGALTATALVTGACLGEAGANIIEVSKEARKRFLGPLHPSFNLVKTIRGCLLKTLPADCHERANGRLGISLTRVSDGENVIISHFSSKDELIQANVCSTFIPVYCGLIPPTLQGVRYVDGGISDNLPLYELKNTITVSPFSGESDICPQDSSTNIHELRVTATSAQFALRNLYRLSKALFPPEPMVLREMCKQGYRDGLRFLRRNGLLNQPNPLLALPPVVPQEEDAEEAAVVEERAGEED

[4] = molecular target: T4, smt3-mATGL288-StrepII (mouse adipose triglyceride lipase truncated after residue 288), WT (Mus musculus, UniProt Q8BJ56 1-288)
T4 sequence (looked up): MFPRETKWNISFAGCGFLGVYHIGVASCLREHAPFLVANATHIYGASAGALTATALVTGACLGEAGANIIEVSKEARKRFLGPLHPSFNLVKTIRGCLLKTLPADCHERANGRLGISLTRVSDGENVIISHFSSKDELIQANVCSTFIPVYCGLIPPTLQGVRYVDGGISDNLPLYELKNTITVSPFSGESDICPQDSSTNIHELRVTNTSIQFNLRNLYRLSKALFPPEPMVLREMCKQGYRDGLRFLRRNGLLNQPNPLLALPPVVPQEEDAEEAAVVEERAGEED

[5] = molecular target: T5, smt3-mATGL288-StrepII N209A (Mus musculus, UniProt Q8BJ56 1-288, N209A)
T5 sequence (looked up): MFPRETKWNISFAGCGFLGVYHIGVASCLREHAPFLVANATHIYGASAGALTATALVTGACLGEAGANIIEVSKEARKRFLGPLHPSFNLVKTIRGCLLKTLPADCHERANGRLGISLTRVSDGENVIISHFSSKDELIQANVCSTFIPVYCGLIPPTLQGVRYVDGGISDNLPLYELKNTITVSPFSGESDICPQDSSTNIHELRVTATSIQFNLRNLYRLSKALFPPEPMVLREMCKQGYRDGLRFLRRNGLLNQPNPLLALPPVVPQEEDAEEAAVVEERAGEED

[6] = molecular target: T6, smt3-mATGL288-StrepII I212A (Mus musculus, UniProt Q8BJ56 1-288, I212A)
T6 sequence (looked up): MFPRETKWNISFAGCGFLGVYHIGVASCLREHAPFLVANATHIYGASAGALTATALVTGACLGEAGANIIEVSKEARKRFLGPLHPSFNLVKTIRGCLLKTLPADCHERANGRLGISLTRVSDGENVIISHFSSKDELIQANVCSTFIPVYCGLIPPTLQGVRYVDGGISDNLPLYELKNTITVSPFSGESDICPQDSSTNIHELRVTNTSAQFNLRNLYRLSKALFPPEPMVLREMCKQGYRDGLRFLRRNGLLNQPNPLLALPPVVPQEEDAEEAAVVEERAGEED

[7] = molecular target: T7, smt3-mATGL288-StrepII I212S (Mus musculus, UniProt Q8BJ56 1-288, I212S)
T7 sequence (looked up): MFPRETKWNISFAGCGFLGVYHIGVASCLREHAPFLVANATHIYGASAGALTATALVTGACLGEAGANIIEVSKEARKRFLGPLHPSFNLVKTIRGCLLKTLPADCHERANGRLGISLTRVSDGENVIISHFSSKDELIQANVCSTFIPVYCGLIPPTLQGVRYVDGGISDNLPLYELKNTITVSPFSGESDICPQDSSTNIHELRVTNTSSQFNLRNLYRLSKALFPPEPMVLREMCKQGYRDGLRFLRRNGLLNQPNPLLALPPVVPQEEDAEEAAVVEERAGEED

[8] = molecular target: T8, smt3-mATGL288-StrepII N215A (Mus musculus, UniProt Q8BJ56 1-288, N215A)
T8 sequence (looked up): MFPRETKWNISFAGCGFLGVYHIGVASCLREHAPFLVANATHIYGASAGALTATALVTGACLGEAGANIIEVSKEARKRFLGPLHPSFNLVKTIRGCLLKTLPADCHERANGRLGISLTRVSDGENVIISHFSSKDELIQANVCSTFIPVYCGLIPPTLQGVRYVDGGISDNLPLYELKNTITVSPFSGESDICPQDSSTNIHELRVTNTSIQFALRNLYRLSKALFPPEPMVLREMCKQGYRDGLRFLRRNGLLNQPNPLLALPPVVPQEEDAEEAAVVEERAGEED

fold activation of TG hydrolase activity by mCGI-58 (Expi293F lysate) [1]: ~20 fold
fold activation of TG hydrolase activity by mCGI-58 (Expi293F lysate) [2]: 11 fold
fold activation of TG hydrolase activity by mCGI-58 (Expi293F lysate) [3]: ≤ 2 fold
EC50 of mCGI-58 for coactivation of TG hydrolase activity (25 μg bacterial lysate with mATGL288, purified mCGI-58 up to 2,300 nM) [4]: 178 nM
EC50 of mCGI-58 for coactivation of TG hydrolase activity (25 μg bacterial lysate with mATGL288 N209A, purified mCGI-58 up to 2,300 nM) [5]: 500 nM
EC50 of mCGI-58 for coactivation of TG hydrolase activity (25 μg bacterial lysate with mATGL288 I212A, purified mCGI-58 up to 2,300 nM) [6]: 500 nM
EC50 of mCGI-58 for coactivation of TG hydrolase activity (25 μg bacterial lysate with mATGL288 I212S, purified mCGI-58 up to 2,300 nM) [7]: 200 nM
EC50 of mCGI-58 for coactivation of TG hydrolase activity (25 μg bacterial lysate with mATGL288 N215A, purified mCGI-58 up to 2,300 nM) [8]: 200 nM
B1: smt3-mCGI-58-His6 (mouse comparative gene identification-58) (natural protein, UniProt Q9DBL9 1-351, looked up)
chain: MKAMAAEEEVDSADAGGGSGWLTGWLPTWCPTSTSHLKEAEEKMLKCVPCTYKKEPVRISNGNRIWTLMFSHNISSKTPLVLLHGFGGGLGLWALNFEDLSTDRPVYAFDLLGFGRSSRPRFDSDAEEVENQFVESIEEWRCALRLDKMILLGHNLGGFLAAAYSLKYPSRVSHLILVEPWGFPERPDLADQERPIPVWIRALGAALTPFNPLAGLRIAGPFGLSLVQRLRPDFKRKYSSMFEDDTVTEYIYHCNVQTPSGETAFKNMTIPYGWAKRPMLQRIGGLHPDIPVSVIFGARSCIDGNSGTSIQSLRPKSYVKTIAILGAGHYVYADQPEEFNQKVKEICHTVD
